The supplement of paper PMC7877785
± gives the uncertainty stated by the source.

Test: self-splicing fitness, log relative to wild type (ln ratio); higher = more splicing; Tetrahymena group I intron in knt gene, E. coli kanamycin selection, DiMSum; sequences stand for … in CUCUCU…GGAGGGAAAAGUUAUCAGGCAUGCACCUGGUAGCUAGUCUUUAAACCAAUAGAUUGCAUCGGUUUAAAAGGCAAGACCGUCAAAUUGCGGGAAAGGGGUCAACAGCCGUUCAGUACCAAGUCUCAGGGGAAACUUUGAGAUGGCCUUGCAAAGGGUAUGGUAAUAAGCUGACGGACAUGGUCCUAACCACGCAGCCAAGUCCUAAGUCAACAGAUCUUCUGUUGAUAUGGAUGCAGUUCACAGACUAAAUGUCGGUCGGGGAAGAUGUAUUCUUCUCAUAAGAUAUAGUCGGACCUCUCCUUAAUGGGAGCUAGCGGAUGAAGUGAUGCAACACUGGAGCCGCUGGGAACUAAUUUGUAUGCGAAAGUAUAUUGAUUAGUUUUGGAGUACUCGUGGUCG
In short: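 The eight P1ex-region nucleotides of an intron in the knt kanamycin-resistance gene on pET-22b(+) were all randomised and the library put into E. coli BL21(DE3). Six replicate transformations were grown overnight at 37°C or 30°C on LB agar with or without 25 μg/mL kanamycin, together with 100 μg/mL carbenicillin, 50 μM IPTG and 0.2% rhamnose. Colonies were pooled and amplicon-sequenced on an Illumina HiSeq 2500. Fitness from DiMSum is the error-weighted combination of wild-type-normalised replicate fold changes, kanamycin over none.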

| Sequence | self-splicing fitness (ln) (30 °C) | self-splicing fitness (ln) (37 °C) |
| --- | --- | --- |
| AUAGAGCAAUAUUACGCUAC | -2.79 ± 0.2 | -2.36 ± 0.2 |
| AUAGAGCAAUAUUACGCUCG | -0.665 ± 0.41 | 0.704 ± 0.38 |
| AUAGAGCAAUAUUACGGAAA | -2.73 ± 0.22 | -2.19 ± 0.38 |
| AUAGAGCAAUAUUACGGCGA | -0.73 ± 0.059 | 0.0474 ± 0.076 |
| AUAGAGCAAUAUUACGGGAU | -1.54 ± 0.11 | -1.87 ± 0.2 |
| AUAGAGCAAUAUUACGGUAC | -3.74 ± 0.32 | -1.55 ± 0.23 |
| AUAGAGCAAUAUUACGUACA | -1.62 ± 0.098 | -0.944 ± 0.12 |
| AUAGAGCAAUAUUACGUGUC | -2.81 ± 0.33 | -2.17 ± 0.36 |
| AUAGAGCAAUAUUACGUGUU | -3.73 ± 0.19 | -2.38 ± 0.18 |
| AUAGAGCAAUAUUACGUUAC | -1.38 ± 0.19 | -1.37 ± 0.3 |
| AUAGAGCAAUAUUACGUUUU | -1.43 ± 0.084 | -1.3 ± 0.14 |
| AUAUAGCAAUAUUACGACGC | -1.91 ± 0.27 | -0.93 ± 0.29 |
| AUAUAGCAAUAUUACGAUAU | -1.87 ± 0.13 | -1.33 ± 0.13 |
| AUAUAGCAAUAUUACGAUUG | -2.96 ± 0.18 | -3.2 ± 0.4 |
| AUAUAGCAAUAUUACGAUUU | -0.24 ± 0.095 | 0.694 ± 0.12 |
| AUAUAGCAAUAUUACGCACG | -1.54 ± 0.23 | -0.439 ± 0.21 |
| AUAUAGCAAUAUUACGCACU | -0.015 ± 0.13 | -0.204 ± 0.16 |
| AUAUAGCAAUAUUACGCAGC | -3.62 ± 0.43 | -1.92 ± 0.27 |
| AUAUAGCAAUAUUACGCCGU | -0.99 ± 0.24 | -0.413 ± 0.19 |
| AUAUAGCAAUAUUACGCGAC | -2.73 ± 0.22 | -2.32 ± 0.21 |
| AUAUAGCAAUAUUACGCGCG | -0.915 ± 0.12 | -0.503 ± 0.15 |
| AUAUAGCAAUAUUACGCUGC | – | -1.74 ± 0.34 |
| AUAUAGCAAUAUUACGGAAA | – | -0.209 ± 0.33 |
| AUAUAGCAAUAUUACGGAGC | – | -2.15 ± 0.46 |
| AUAUAGCAAUAUUACGGCAG | -1.74 ± 0.16 | -1.79 ± 0.19 |

| Sequence | self-splicing fitness (ln) (30 °C) | self-splicing fitness (ln) (37 °C) |
| --- | --- | --- |
| AUAUAGCAAUAUUACGGCGU | -0.109 ± 0.11 | -0.16 ± 0.12 |
| AUAUAGCAAUAUUACGGCUC | -0.0589 ± 0.13 | -0.144 ± 0.16 |
| AUAUAGCAAUAUUACGGGAA | -2.9 ± 0.2 | -2.23 ± 0.19 |
| AUAUAGCAAUAUUACGGGGA | -2.21 ± 0.32 | -1.72 ± 0.41 |
| AUAUAGCAAUAUUACGGGUG | -1.81 ± 0.17 | -1.3 ± 0.15 |
| AUAUAGCAAUAUUACGGUAC | -3.69 ± 0.39 | -2.59 ± 0.22 |
| AUAUAGCAAUAUUACGGUUG | -3.18 ± 0.2 | -2.24 ± 0.26 |
| AUAUAGCAAUAUUACGUAAA | -2.17 ± 0.21 | -1.56 ± 0.29 |
| AUAUAGCAAUAUUACGUAGA | -2.19 ± 0.094 | -1.87 ± 0.15 |
| AUAUAGCAAUAUUACGUAUG | -3.36 ± 0.25 | -1.72 ± 0.3 |
| AUAUAGCAAUAUUACGUGGU | -2.88 ± 0.19 | -1.54 ± 0.29 |
| AUCAAGCAAUAUUACGAAGU | -2.52 ± 0.11 | -1.22 ± 0.12 |
| AUCAAGCAAUAUUACGACAC | -1.45 ± 0.079 | -0.324 ± 0.11 |
| AUCAAGCAAUAUUACGACGG | -3.8 ± 0.14 | -2.67 ± 0.15 |
| AUCAAGCAAUAUUACGAGAA | -1.21 ± 0.49 | -2.28 ± 0.28 |
| AUCAAGCAAUAUUACGAGCA | -1.3 ± 0.075 | -0.375 ± 0.076 |
| AUCAAGCAAUAUUACGAGUA | -1.56 ± 0.11 | -0.436 ± 0.1 |
| AUCAAGCAAUAUUACGAUAU | -1.21 ± 0.065 | -0.753 ± 0.092 |
| AUCAAGCAAUAUUACGAUCA | -1.14 ± 0.1 | -0.582 ± 0.11 |
| AUCAAGCAAUAUUACGCCAA | -1.99 ± 0.16 | -0.947 ± 0.13 |
| AUCAAGCAAUAUUACGCCGC | -2.23 ± 0.34 | – |
| AUCAAGCAAUAUUACGCCUG | -1.61 ± 0.12 | -0.797 ± 0.16 |
| AUCAAGCAAUAUUACGCGCA | -0.314 ± 0.073 | 0.448 ± 0.098 |
| AUCAAGCAAUAUUACGCUAG | -2.76 ± 0.16 | -1.03 ± 0.13 |
| AUCAAGCAAUAUUACGCUUU | -3.57 ± 0.15 | -2.31 ± 0.12 |

| Sequence | self-splicing fitness (ln) (30 °C) | self-splicing fitness (ln) (37 °C) |
| --- | --- | --- |
| AUCAAGCAAUAUUACGGUGG | -3.54 ± 0.19 | -2.63 ± 0.2 |
| AUCAAGCAAUAUUACGUAAG | -2.05 ± 0.097 | -1.45 ± 0.13 |
| AUCAAGCAAUAUUACGUACG | -2.54 ± 0.11 | -0.576 ± 0.11 |
| AUCAAGCAAUAUUACGUAGA | -1.36 ± 0.094 | -1.66 ± 0.17 |
| AUCAAGCAAUAUUACGUCAA | -3.14 ± 0.2 | -0.928 ± 0.15 |
| AUCAAGCAAUAUUACGUCCG | -2.1 ± 0.14 | -1.14 ± 0.16 |
| AUCAAGCAAUAUUACGUGAA | -1.73 ± 0.071 | -1.45 ± 0.1 |
| AUCAAGCAAUAUUACGUUGG | -2.7 ± 0.13 | -2.25 ± 0.16 |
| AUCAAGCAAUAUUACGUUGU | -3.46 ± 0.17 | -1.92 ± 0.12 |
| AUCCAGCAAUAUUACGACAA | -0.977 ± 0.095 | -0.337 ± 0.096 |
| AUCCAGCAAUAUUACGCGGG | -3.37 ± 0.13 | -2.42 ± 0.17 |
| AUCCAGCAAUAUUACGCGUA | -0.536 ± 0.089 | -0.499 ± 0.097 |
| AUCCAGCAAUAUUACGGACU | -0.507 ± 0.068 | 0.126 ± 0.082 |
| AUCCAGCAAUAUUACGGAUG | -2.21 ± 0.094 | -1.68 ± 0.12 |
| AUCCAGCAAUAUUACGGCUU | -0.0325 ± 0.076 | 0.438 ± 0.1 |
| AUCCAGCAAUAUUACGGGUA | -1.58 ± 0.1 | -1.21 ± 0.089 |
| AUCCAGCAAUAUUACGGUUA | -0.475 ± 0.05 | 0.0679 ± 0.054 |
| AUCCAGCAAUAUUACGGUUC | -4.5 ± 0.17 | -1.95 ± 0.17 |
| AUCCAGCAAUAUUACGUAAG | -1.59 ± 0.065 | -0.715 ± 0.087 |
| AUCCAGCAAUAUUACGUAUU | -1.84 ± 0.078 | -1.23 ± 0.093 |
| AUCCAGCAAUAUUACGUCCG | -2.45 ± 0.17 | -1.04 ± 0.15 |
| AUCCAGCAAUAUUACGUCGG | -2.71 ± 0.089 | -2.43 ± 0.13 |
| AUCCAGCAAUAUUACGUCUA | -0.908 ± 0.066 | -0.497 ± 0.07 |
| AUCCAGCAAUAUUACGUGGC | -3.98 ± 0.17 | -2.62 ± 0.16 |
| AUCCAGCAAUAUUACGUGUU | -2.74 ± 0.094 | -2.45 ± 0.12 |

| Sequence | self-splicing fitness (ln) (30 °C) | self-splicing fitness (ln) (37 °C) |
| --- | --- | --- |
| AUCGAGCAAUAUUACGAAUA | -3.09 ± 0.44 | -2.21 ± 0.35 |
| AUCGAGCAAUAUUACGACAG | -2.51 ± 0.12 | -3.22 ± 0.19 |
| AUCGAGCAAUAUUACGAUAG | -3.68 ± 0.22 | -3.23 ± 0.2 |
| AUCGAGCAAUAUUACGAUUC | -2.98 ± 0.34 | – |
| AUCGAGCAAUAUUACGCACA | -2.46 ± 0.16 | -0.76 ± 0.11 |
| AUCGAGCAAUAUUACGCUAU | -3.38 ± 0.29 | -3.08 ± 0.24 |
| AUCGAGCAAUAUUACGGAUG | – | 0.184 ± 0.17 |
| AUCGAGCAAUAUUACGGCCG | -1.92 ± 0.22 | -0.981 ± 0.2 |
| AUCGAGCAAUAUUACGGCGC | -1.38 ± 0.091 | -0.856 ± 0.13 |
| AUCGAGCAAUAUUACGGCUG | -1.8 ± 0.24 | -0.221 ± 0.35 |
| AUCGAGCAAUAUUACGGGCC | -1.92 ± 0.27 | -2.19 ± 0.37 |
| AUCGAGCAAUAUUACGGGGG | -3.4 ± 0.25 | -2.67 ± 0.26 |
| AUCGAGCAAUAUUACGGUAA | -2.41 ± 0.29 | -3.15 ± 0.35 |
| AUCGAGCAAUAUUACGGUAG | – | -1.93 ± 0.27 |
| AUCGAGCAAUAUUACGGUCA | -2.98 ± 0.18 | -2.07 ± 0.18 |
| AUCGAGCAAUAUUACGGUUA | -3.3 ± 0.23 | -1.04 ± 0.13 |
| AUCGAGCAAUAUUACGGUUC | -2.93 ± 0.24 | – |
| AUCGAGCAAUAUUACGUAAC | -3.15 ± 0.43 | – |
| AUCGAGCAAUAUUACGUACA | -3.78 ± 0.33 | -1.72 ± 0.16 |
| AUCGAGCAAUAUUACGUCGC | -2.55 ± 0.28 | -2.21 ± 0.29 |
| AUCGAGCAAUAUUACGUCUA | -3.26 ± 0.32 | -0.994 ± 0.13 |
| AUCGAGCAAUAUUACGUGAU | – | -1.87 ± 0.43 |
| AUCGAGCAAUAUUACGUGCG | -4 ± 0.29 | -1.73 ± 0.13 |
